Source: patent US8084228B2, “Nogo-B receptor antagonists” (Yale University, priority 2006, dated 2011)

B1: AP-Nogo-66: AP fusion of Nogo-66, a 66 amino acid residue loop in the RHD (protein)
chain: RIYKGVIQAIQKSDEGHPFRAYLESEVAISEELVQKYSNSALGHVNCTIKELRRLFLVDDLVDSLK
modifications: left off: large carriers
notes: AP fusion of Nogo-66, a 66 amino acid residue loop in the RHD
B2: AP-Nogo-A (59-172): AP fusion with biologically active domain 59-172 of Nogo-A (protein)
chain: PAAGLSAAPVPTAPAAGAPLMDFGNDFVPPAPRGPLPAAPPVAPERQPSWDPSPVSSTVPAPSPLSAAAVSPSKLPEDDEPPARPPPPPPASVSPQAEPVWTPPAPAPAAPPST
modifications: left off: large carriers
B3: AP-Nogo-B (amino acids 1-180): AP fusion with amino acids 1-180 of Nogo-B (protein)
chain: MEDLDQSPLVSSSDSPPRPQPAFKYQFVREPEDEEEEEEEEEEDEDEDLEELEVLERKPAAGLSAAPVPTAPAAGAPLMDFGNDFVPPAPRGPLPAAPPVAPERQPSWDPSPVSSTVPAPSPLSAAAVSPSKLPEDDEPPARPPPPPPASVSPQAEPVWTPPAPAPAAPPSTPAAPKRRG
modifications: left off: large carriers
notes: AP fusion with amino acids 1-180 of Nogo-B
B4: Ap-Nogo-B (61-200): AP fusion with amino acids 61-200 of Nogo-B (protein)
chain: AGLSAAPVPTAPAAGAPLMDFGNDFVPPAPRGPLPAAPPVAPERQPSWDPSPVSSTVPAPSPLSAAAVSPSKLPEDDEPPARPPPPPPASVSPQAEPVWTPPAPAPAAPPSTPAAPKRRGSSGSVVVDLLYWRDIKKTGV
modifications: left off: large carriers
notes: AP fusion with amino acids 61-200 of Nogo-B

Assays:
[1] = tested on: Endothelial cells; assay: Am-Nogo-B-induced migration of endothelial cells, inhibition by NgBR ectodomain peptides or fusion protein; type: cell-based; settings: peptide 200 nM, Am-Nogo-B 100 nM
Description: (§1) Cell migration was examined in modified Boyden chambers using 10 nM each of purified recombinant AP, AP fusion of Nogo-66 (AP-Nogo-66) or Am-Nogo-B. The transwell inserts (Costar transwell inserts; Corning) were coated with a solution of 0.1% gelatin (Sigma) in PBS at 4° C. overnight and then air-dried. VEGF at 50 ng/mL (1.1 nM) or recombinant Am-Nogo-B at various concentrations dissolved in medium 199 containing 0.1% BSA was added in the bottom chamber of the Boyden apparatus. HUVEC (200,000 cells) suspended in a 100 μL aliquot of medium 199 containing 0.1% BSA was added to the upper chamber. After 5 hours incubation, cells on both sides of the membrane were fixed and stained with a Diff-Quik staining kit (Baxter Healthcare, Miami, Fla.). The average number of cells from five randomly chosen high-power (×400) fields on the lower side of the membrane was counted.
Endothelial cells were incubated with vehicle (control) of one of peptides P1-P4 (200 nM each) in the presence of Am-Nogo-B (100 nM).
Similarly, treatment of endothelial cells with mFc-ecto, but not mFc, blocked Am-Nogo-B-induced cell migration (FIG. 35).

[2] = tested on: HUVEC; assay: AP-Am-Nogo-B binding to HUVEC after siRNA transfection; type: cell-based, human; settings: 72 hours after siRNA transfection
Description: (§2) To detect AP-Am-Nogo-B binding, cultures were washed with Hanks' balanced salt solution (HBSS) containing 20 mM HEPES, pH 7.5, and 1 mg/mL BSA (HBH). The plates were then incubated with AP-Am-Nogo-B in DMEM containing 20 mM Hepes, pH 7.5, and 1 mg/mL BSA for 2 hours at 4° C. The bound AP-Am-Nogo-B was detected by using the Blue Substrate kit (Vector Laboratories). The blue staining was examined by using the ODYSSEY Infrared Imaging System (Li-Cor, Lincoln, Nebr.) and confirmed by microscopy. Alternatively, the bound AP-Am-Nogo-B was extracted with Triton X-100, and AP activity was colorimetrically quantified by using p-nitrophenyl phosphate (Sigma) as substrate after heat inactivation of endogenous AP. Non-specific binding was determined by measuring binding in the presence of a 100-fold molar excess of recombinant Am-Nogo-B lacking the AP fusion protein. Specific binding was determined by subtracting the non-specific binding from total binding. For determination of apparent Kd, the binding of AP-Am-Nogo-B was measured in triplicate as described above and the Kd value was quantified by using the Scatchard plot program of GraphPad PRISM (one-site binding, linear regression) using the ratio of bound ligand to free ligand as the y axis and bound ligand (pM) as the x axis.
(§3) NgBR siRNA oligonucleotides (SEQ ID NOS:2-5) with 3′ dTdT overhangs were synthesized by Qiagen. Control siRNA in experiments refers to a nonsilencing (NS) siRNA (NS forward: UUCUCCGAACGUGUCACGU, SEQ ID NO:7; NS reverse: ACGUGACACGUUCGGAGAA, SEQ ID NO:8) designed and synthesized by Qiagen. HUVEC and CHO stable cell lines were transfected with siRNA by using Oligofectamine. Quantification of NgBR mRNA and protein, ligand binding assay, and migration assay were performed at 72 hours after transfection.

[3] = tested on: NgBR mRNA; assay: NgBR mRNA by quantitative PCR after siRNA transfection of HUVEC; type: cell-based, human; settings: 72 hours after transfection, normalized to 18S
Description: as §3
Total RNA from cells was isolated by using the RNeasy kit (Qiagen). Reverse transcription was then performed by using 100 ng of RNA and the Superscript First-Strand Synthesis System kit (Invitrogen). Real-time PCR analysis was done with the iCycler iQ detection system using the iQ SYBR green Supermix kit (Bio-Rad). The NgBR mRNA level was normalized by housekeeping gene 18S. The following primers were used for NgBR: forward, 5′-[…]-3′ (SEQ ID NO:9) and reverse, 5′-[…]-3′ (SEQ ID NO:10). The following primers were used for 18S: forward, 5′-[…]-3′ (SEQ ID NO:11) and reverse, 5′-[…]-3′ (SEQ ID NO:12).

[4] = biological target: T1, NgBR (Homo sapiens, UniProt Q96E22); assay: AP fusion protein binding to CHO cells expressing NgBR; design: an isolated cDNA encoding NgBR is 2,636 base pairs encoding an open reading frame of 293 amino acids; expressed in transfected cells; settings: for surface binding of AP fusion domains to NgBR-expressing cells: CHO cells expressing NgBR (FIGS. 11, 14)
T1 sequence (Q96E22 1-293): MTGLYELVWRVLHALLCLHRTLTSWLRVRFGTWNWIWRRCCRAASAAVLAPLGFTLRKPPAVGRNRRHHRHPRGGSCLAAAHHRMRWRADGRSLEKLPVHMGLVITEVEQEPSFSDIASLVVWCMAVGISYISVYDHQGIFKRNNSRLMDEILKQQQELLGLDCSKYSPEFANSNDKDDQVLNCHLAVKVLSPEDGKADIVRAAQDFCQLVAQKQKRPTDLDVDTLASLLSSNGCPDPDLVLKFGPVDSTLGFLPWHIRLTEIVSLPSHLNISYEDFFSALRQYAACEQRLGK
Description: as §2
A recombinant AP-Am-Nogo-B fusion protein was used to screen a cDNA expression library from human heart (500,000 independent clones) transfected into COS or CHO cells using Lipofectamine 2000 (Invitrogen). COS-7 cells were cultured in high-glucose DMEM with 10% FBS. CHO cells were cultured in MEM-α with 5% FBS.

[5] = biological target: T1, NgBR; assay: AP fusion protein binding to COS cells transfected with the isolated NgBR cDNA; design: an isolated cDNA encoding NgBR is 2,636 base pairs encoding an open reading frame of 293 amino acids; expressed in transfected cells; host or cells: COS-7 (A4); settings: COS cells (FIG. 6)
Description: as §2
(§4) For expression cloning of Am-Nogo-B receptor, pools of 5,000 arrayed clones from a human heart cDNA library (OriGene Technologies, Rockville, Md.) were transfected into COS-7 cells, and AP-Am-Nogo-B binding was assessed by using AP versus AP-Am-Nogo-B binding and detection of the AP product by near-infrared cell imaging (Li-Cor, Lincoln, Nebr.) or AP activity assays.
Single NgBR cDNA clones were isolated by sib selection and sequenced. […] The HA-tagged NgBR was immunoisolated with anti-HA immunobeads (Roche, Indianapolis, Ind.) and associated proteins analyzed by Western blotting. For the Western blots, expression of NgBR-HA was detected by using anti-HA (Roche) and NgBR (Imgenex), respectively, and beta-actin (Sigma) or Hsp90 (BD Biosciences-Pharmingen) was used to control for loading.

[6] = tested on: HUVEC; assay: HUVEC migration in modified Boyden chambers; type: cell-based, human; settings: 10 nM purified recombinant protein, 5 hours
Description: The migratory response of human umbilical vein endothelial cells (HUVEC) in response to a gradient of recombinant, purified alkaline phosphatase (AP) fusion protein expressing Am-Nogo-B or a recombinant purified Am-Nogo-B was examined. HUVEC were cultured in M199 with 20% FBS and endothelial cell growth supplement (ECGS).
as §1

[7] = biological target: T2, Nogo receptor (Homo sapiens, UniProt Q9BZR6); assay: AP fusion protein binding to COS cells transfected with cDNA encoding the Nogo receptor; settings: COS cells (FIG. 6)
T2 construct: expressed in transfected cells; host or cells: COS-7
T2 sequence (Q9BZR6 27-447): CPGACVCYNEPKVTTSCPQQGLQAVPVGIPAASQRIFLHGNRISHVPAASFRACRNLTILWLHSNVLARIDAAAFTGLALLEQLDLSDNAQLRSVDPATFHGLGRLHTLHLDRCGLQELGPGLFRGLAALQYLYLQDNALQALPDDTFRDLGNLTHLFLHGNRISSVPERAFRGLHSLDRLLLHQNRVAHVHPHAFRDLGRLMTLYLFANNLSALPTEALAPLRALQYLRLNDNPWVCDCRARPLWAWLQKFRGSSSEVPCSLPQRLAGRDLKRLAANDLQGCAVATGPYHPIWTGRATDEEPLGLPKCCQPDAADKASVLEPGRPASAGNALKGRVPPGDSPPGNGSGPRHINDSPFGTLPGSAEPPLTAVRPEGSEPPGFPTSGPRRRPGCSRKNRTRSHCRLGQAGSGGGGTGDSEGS
Description: as §2, §4

[8] = tested on: HUVEC; assay: Binding of AP fusion proteins to the surface of HUVEC; design: species or system human; settings: HUVEC (FIGS. 12, 15)
Description: as §2

Molecule | Am-Nogo-B-induced migration of endothelial cells in presence of peptide [1] | surface binding of AP fusion domains to NgBR-expressing cells [4] | surface binding of AP fusion domains to HUVEC [8] | other results
P2: NgBR ectodomain peptide LAPLGFTLRKPPAVGRNRRHHRHPRGGSCL (SEQ ID NO: 14) (listed as Homo sapiens) | effectively reduced | – | – | –
P4: NgBR ectodomain peptide ADGRSLEKLPVHMGLVITEVEQEPSFSD (SEQ ID NO: 16) (listed as Homo sapiens) | to a lesser extent | – | – | –
PP2: truncated version of P2, TLRKPPAVGRNRRHHRHPRG (SEQ ID NO: 18) (listed as Homo sapiens) | nearly identical to that of P2 | – | – | –
nonsilencing RNA: nonsilencing (NS) control siRNA by Qiagen; forward UUCUCCGAACGUGUCACGU (SEQ ID NO:7) (antisense ACGUGACACGUUCGGAGAA; listed as RNA, chemistry not given here) [reference compound] | – | – | – | binding of AP-Am-Nogo-B to HUVEC [2]: not; level of NgBR mRNA [3]: not
scrambled version of P2: scrambled P2 control PGRHLKPSRFNARLHGPCRVLRAHGPLTRG (SEQ ID NO: 17) (scrambled version of SEQ ID NO 14) [reference compound] | did not block | – | – | –
B1 | – | did not bind | did not bind | binding to CHO cells stably expressing NgBR ([4]; increasing concentrations, 2 hours at 4° C.): not; binding to COS cells transfected with the isolated NgBR cDNA [5]: not; HUVEC migration [6]: does not promote; binding to COS cells transfected with Nogo receptor cDNA [7]: selectively bind
B2 | – | did not bind | did not bind | –
B3 | – | did not bind | did not bind | –
B4 | – | did | did | –
